Residue numbers refer to the chain shown, from its start.
B1: DGL267 (bispecific antibody)
chain 1: EVQLLESGGGLVQPGGSLRLSCAASGFTFSSYAMSWVRQAPGKGLEWVANINQDGSEKNYVDSMRGRFTISRDNSKNTLYLQMNSLRAEDTAVYYCAREFDYWGQGTLVTVTSSGGGGSGGGGSGGGGSQSVLAQPPSASGTPGQRVTISCSGSSSNIGSNYVYWYQQLPGTAPKLLIYGNNKRPSGVPDRFSGSKSGTSASLAISGLRSEDEADYYCAAWDDSLNGRVFGGGTKLTVLGGGGSGGGGSGGGGSGVECPPCPAPPVAGPSVFLFPPKPKDTLMISRTPEVTCVVVDVSHEDPEVQFNWYVDGVEVHNAKTKPREEQFNSTFRVVSVLTVVHQDWLNGKEYKCKVSNKGLPAPIEKTISKTKGQPREPQVYTLPPCREEMTKNQVSLWCLVKGFYPSDIAVEWESNGQPENNYKTTPPMLDSDGSFFLYSKLTVDKSRWQQGNVFSCSVMHEALHNHYTQKSLSLSPG
chain 2: EVQLLESGGGLVQPGGSLRLSCAASGFTFSDYYMTWIRQAPGKGLEWVSSISGGSTYYADSRKGRFTISRDNSENTLYLQMNSLRAEDTAVYYCARDFGVAGWFGQYGMDVWGQGTLVTVSSGGGGSGGGGSGGGGSQSVLTQPPSASGTPGQRVTISCTGSSSNIGAGYDVHWYQQLPGTAPKLLIYRSNQRPSGVPDRFSGSKSGTSASLAISGLRSEDEADYYCSSYAGNYNLVFGGGTKLTVLGGGGSGGGGSGGGGSGVECPPCPAPPVAGPSVFLFPPKPKDTLMISRTPEVTCVVVDVSHEDPEVQFNWYVDGVEVHNAKTKPREEQFNSTFRVVSVLTVVHQDWLNGKEYKCKVSNKGLPAPIEKTISKTKGQPREPQVCTLPPSREEMTKNQVSLSCAVKGFYPSDIAVEWESNGQPENNYKTTPPMLDSDGSFFLVSKLTVDKSRWQQGNVFSCSVMHEALHNHYTQKSLSLSPG
B2: DGL271 (bispecific antibody)
chain 1: B1 chain 2 with C388Y, S393C, S405W, A407L, V446Y
chain 2: B1 chain 2
B3: DGL270 (bispecific antibody)
chain 1: B1 chain 1
chain 2: B1 chain 1 with Y380C, C385S, W397S, L399A, Y438V
B4: DGL273 (bispecific antibody)
chain 1: EVQLLESGGGLVQPGGSLRLSCAASGFTFSIYAMSWVRQAPGKGLEWVSAISGSGGSTYYADSVKGRFTISRDNSKNTLYLQMNSLRAEDTAVYYCARDFDYWGQGTLVTVTSSGGGGSGGGGSGGGGSQSVLTQPPSASGTPGQRVTISCSGSSSNIGSNYVYWYQQLPGTAPKLLIYGNINRPSGVPDRFSGSKSGTSASLAISGLRSEDEADYYCAAWDDSLNGRVFGGGTKLTVLCPPCPAPEAAGAPSVFLFPPKPKDTLMISRTPEVTCVVVDVSHEDPEVKFNWYVDGVEVHNAKTKPREEQYNSTYRVVSVLTVLHQDWLNGKEYKCKVSNKALPAPIEKTISKAKGQPREPQVYTLPPCRDELTKNQVSLWCLVKGFYPSDIAVEWESNGQPENNYKTTPPVLDSDGSFFLYSKLTVDKSRWQQGNVFSCSVMHEALHNHYTQKSLSLSPGEPEA
chain 2: EVQLLESGGGLVQPGGSLRLSCAASGFTFSNAWMNWVRQAPGKGLEWVSSISSSSSYIYYADSVKGRFTISRDNSKNTLYLQMNSLRAEDTAVYYCARAVAAGGMFWGLDQWGQGTLVTVTSSGGGGSGGGGSGGGGSQSVLTQPPSASGTPGQRVTISCSGSRSNIGSNSVHWYQQLPGTAPKLLIYGNSNRPSGVPDRFSGSKSGTSASLAISGLRSEDEADYYCQSYDSSLNDHVVFGGGTKLTVLCPPCPAPEAAGAPSVFLFPPKPKDTLMISRTPEVTCVVVDVSHEDPEVKFNWYVDGVEVHNAKTKPREEQYNSTYRVVSVLTVLHQDWLNGKEYKCKVSNKALPAPIEKTISKAKGQPREPQVCTLPPSRDELTKNQVSLSCAVKGFYPSDIAVEWESNGQPENNYKTTPPVLDSDGSFFLVSKLTVDKSRWQQGNVFSCSVMHEALHNHYTQKSLSLSPGWSHPQFEK
B5: DGL269 (bispecific antibody)
chain 1: EVQLLESGGGLVQPGGSLRLSCAASGFTFSNAWMNWVRQAPGKGLEWVSSISSSSSYIYYADSVKGRFTISRDNSKNTLYLQMNSLRAEDTAVYYCARAVAAGGMFWGLDQWGQGTLVTVTSSGGGGSGGGGSGGGGSQSVLTQPPSASGTPGQRVTISCSGSRSNIGSNSVHWYQQLPGTAPKLLIYGNSNRPSGVPDRFSGSKSGTSASLAISGLRSEDEADYYCQSYDSSLNDHVVFGGGTKLTVLGGGGSGGGGSGGGGSGVECPPCPAPPVAGPSVFLFPPKPKDTLMISRTPEVTCVVVDVSHEDPEVQFNWYVDGVEVHNAKTKPREEQFNSTFRVVSVLTVVHQDWLNGKEYKCKVSNKGLPAPIEKTISKTKGQPREPQVYTLPPCREEMTKNQVSLWCLVKGFYPSDIAVEWESNGQPENNYKTTPPMLDSDGSFFLYSKLTVDKSRWQQGNVFSCSVMHEALHNHYTQKSLSLSPG
chain 2: B5 chain 1 with Y390C, C395S, W407S, L409A, Y448V
B6: DGL268 (bispecific antibody)
chain 1: EVQLLESGGGLVQPGGSLRLSCAASGFTFSIYAMSWVRQAPGKGLEWVSAISGSGGSTYYADSVKGRFTISRDNSKNTLYLQMNSLRAEDTAVYYCARDFDYWGQGTLVTVTSSGGGGSGGGGSGGGGSQSVLTQPPSASGTPGQRVTISCSGSSSNIGSNYVYWYQQLPGTAPKLLIYGNINRPSGVPDRFSGSKSGTSASLAISGLRSEDEADYYCAAWDDSLNGRVFGGGTKLTVLGGGGSGGGGSGGGGSGVECPPCPAPPVAGPSVFLFPPKPKDTLMISRTPEVTCVVVDVSHEDPEVQFNWYVDGVEVHNAKTKPREEQFNSTFRVVSVLTVVHQDWLNGKEYKCKVSNKGLPAPIEKTISKTKGQPREPQVYTLPPCREEMTKNQVSLWCLVKGFYPSDIAVEWESNGQPENNYKTTPPMLDSDGSFFLYSKLTVDKSRWQQGNVFSCSVMHEALHNHYTQKSLSLSPG
chain 2: B6 chain 1 with Y380C, C385S, W397S, L399A, Y438V

Target: ALK-1/BMPR-2 receptor pair of the PathHunter U2Os dimerization cells (DiscoverX 93-0962C3) (UniProt P37023 22-503; Q13873 27-1038)
Test: cell-based or functional assay

Sequence of ALK-1/BMPR-2 receptor pair of the PathHunter U2Os dimerization cells (DiscoverX 93-0962C3) (P37023 22-503, chain 1 of 2): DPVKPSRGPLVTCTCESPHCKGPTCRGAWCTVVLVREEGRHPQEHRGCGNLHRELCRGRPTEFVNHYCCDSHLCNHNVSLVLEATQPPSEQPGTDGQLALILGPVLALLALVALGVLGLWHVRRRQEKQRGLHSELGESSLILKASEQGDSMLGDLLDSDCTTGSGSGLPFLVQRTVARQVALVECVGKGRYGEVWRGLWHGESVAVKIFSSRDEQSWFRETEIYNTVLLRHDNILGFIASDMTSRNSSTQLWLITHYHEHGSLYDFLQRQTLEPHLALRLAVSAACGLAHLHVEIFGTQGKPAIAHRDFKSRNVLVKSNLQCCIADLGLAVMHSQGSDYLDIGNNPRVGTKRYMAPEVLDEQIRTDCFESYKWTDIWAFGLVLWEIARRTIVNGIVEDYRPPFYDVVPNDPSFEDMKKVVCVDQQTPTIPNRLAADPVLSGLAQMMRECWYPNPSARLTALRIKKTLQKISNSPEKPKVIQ
Sequence of ALK-1/BMPR-2 receptor pair of the PathHunter U2Os dimerization cells (DiscoverX 93-0962C3) (Q13873 27-1038, chain 2 of 2): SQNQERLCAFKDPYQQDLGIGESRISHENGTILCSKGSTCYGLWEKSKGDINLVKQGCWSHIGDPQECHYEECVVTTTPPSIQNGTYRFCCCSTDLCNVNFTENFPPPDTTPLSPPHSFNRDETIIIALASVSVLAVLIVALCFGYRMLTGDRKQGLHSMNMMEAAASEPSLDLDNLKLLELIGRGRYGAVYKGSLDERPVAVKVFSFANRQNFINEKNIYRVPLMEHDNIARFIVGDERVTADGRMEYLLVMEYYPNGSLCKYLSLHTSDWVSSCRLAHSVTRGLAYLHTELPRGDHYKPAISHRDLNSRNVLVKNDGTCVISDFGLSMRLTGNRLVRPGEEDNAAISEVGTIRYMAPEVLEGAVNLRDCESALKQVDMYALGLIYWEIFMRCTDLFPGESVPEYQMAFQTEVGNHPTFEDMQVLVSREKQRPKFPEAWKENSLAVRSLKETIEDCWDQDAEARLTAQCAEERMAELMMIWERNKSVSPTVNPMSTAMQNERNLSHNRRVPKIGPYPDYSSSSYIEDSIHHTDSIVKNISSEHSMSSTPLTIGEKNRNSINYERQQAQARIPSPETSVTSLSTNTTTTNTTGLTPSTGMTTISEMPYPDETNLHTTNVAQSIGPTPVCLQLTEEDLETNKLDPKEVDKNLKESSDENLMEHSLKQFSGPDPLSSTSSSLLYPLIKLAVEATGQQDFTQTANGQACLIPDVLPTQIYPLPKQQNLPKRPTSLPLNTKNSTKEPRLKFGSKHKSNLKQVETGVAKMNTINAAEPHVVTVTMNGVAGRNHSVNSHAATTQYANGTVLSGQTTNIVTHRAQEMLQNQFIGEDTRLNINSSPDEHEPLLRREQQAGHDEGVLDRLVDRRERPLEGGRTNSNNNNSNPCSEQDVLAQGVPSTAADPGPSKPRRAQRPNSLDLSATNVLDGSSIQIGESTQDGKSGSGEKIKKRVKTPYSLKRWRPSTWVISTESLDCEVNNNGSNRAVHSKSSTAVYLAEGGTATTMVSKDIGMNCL

Binder | % Emax BMP9 [%] | EC50 [nM] | Emax (RLU)
B1 | 46 | 0.9 | 1.23e+06
B2 | 2 | – | 55900
B3 | 0 | – | 9200
B4 | 46 | 4.2 | 1.22e+06
B5 | 0 | – | -8300
B6 | 1 | 0.1 | 35200
